Results on 21 molecules are retold here after patent US20110256180A1 (CHILDREN S HOSPITAL AND RESEARCH CENTER AT OAKLAND, published 2011).

For assay [1], the target named is human complement factor H (human) (UniProt P08603). Kind of assay: ELISA, vs respective wildtype fHbp.
Assay [2] addresses T1, human complement factor H (human, UniProt P08603 19-1231).
T1 construct: also called human fH; fH
Kind of assay: ELISA, vs respective wildtype fHbp. (In general: An ELISA detects its analyte on a solid surface through an enzyme-linked reagent.)

The target of assay [3] is T1, human complement factor H. Kind of assay: ELISA, fHbp on plate.

Positions count from the first letter of the chain named. Numbers in names are those of the source.

T1 sequence (P08603 19-1231 limits assumed): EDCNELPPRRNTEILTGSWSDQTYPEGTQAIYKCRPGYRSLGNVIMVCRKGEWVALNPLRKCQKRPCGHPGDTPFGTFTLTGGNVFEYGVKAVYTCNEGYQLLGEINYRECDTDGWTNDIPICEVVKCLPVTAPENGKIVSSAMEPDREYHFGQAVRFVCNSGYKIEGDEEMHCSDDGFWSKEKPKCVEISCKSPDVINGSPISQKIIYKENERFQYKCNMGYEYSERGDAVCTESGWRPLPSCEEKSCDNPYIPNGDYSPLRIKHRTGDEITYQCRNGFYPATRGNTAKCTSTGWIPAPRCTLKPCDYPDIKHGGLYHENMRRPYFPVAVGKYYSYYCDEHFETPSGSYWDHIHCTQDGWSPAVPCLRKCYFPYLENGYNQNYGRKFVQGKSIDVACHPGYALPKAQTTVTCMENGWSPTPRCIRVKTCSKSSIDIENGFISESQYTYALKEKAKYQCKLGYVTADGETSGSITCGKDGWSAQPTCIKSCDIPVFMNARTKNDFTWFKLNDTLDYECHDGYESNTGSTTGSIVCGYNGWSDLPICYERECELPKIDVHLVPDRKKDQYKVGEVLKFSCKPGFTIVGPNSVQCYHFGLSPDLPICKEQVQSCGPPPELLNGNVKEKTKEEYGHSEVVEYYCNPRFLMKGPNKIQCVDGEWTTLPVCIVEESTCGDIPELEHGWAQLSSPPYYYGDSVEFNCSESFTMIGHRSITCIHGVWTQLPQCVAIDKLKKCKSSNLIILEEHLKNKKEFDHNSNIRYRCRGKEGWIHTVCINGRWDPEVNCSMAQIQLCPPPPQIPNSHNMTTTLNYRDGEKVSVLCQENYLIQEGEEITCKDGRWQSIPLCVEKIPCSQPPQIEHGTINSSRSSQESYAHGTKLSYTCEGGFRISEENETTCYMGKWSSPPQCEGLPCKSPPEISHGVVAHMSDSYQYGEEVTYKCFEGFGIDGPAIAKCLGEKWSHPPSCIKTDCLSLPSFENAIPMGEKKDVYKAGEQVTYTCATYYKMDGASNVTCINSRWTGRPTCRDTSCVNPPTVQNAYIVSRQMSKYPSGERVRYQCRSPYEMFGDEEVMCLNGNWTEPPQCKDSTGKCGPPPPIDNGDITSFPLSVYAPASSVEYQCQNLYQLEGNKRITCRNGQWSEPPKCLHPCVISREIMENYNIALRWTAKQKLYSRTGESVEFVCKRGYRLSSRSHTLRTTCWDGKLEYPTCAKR
human complement factor H (human), sequence (P08603 19-1231 limits assumed): as above

fHbp ID 9 R41S mutant gave a Fold-Decrease in fH binding in assay [1] greater than 50 fold. As to fHbp ID 74 R41S mutant, in assay [1], the Fold-Decrease in fH binding was greater than 50 fold.

B1: fHbp ID 15 E241K mutant (other)
chain: CSSGGGGSGGGGVAADIGAGLADALTAPLDHKDKGLKSLTLEDSISQNGTLTLSAQGAERTFKAGDKDNSLNTGKLKNDKISRFDFIRQIEVDGQLITLESGEFQVYKQSHSALTALQTEQVQDSEHSGKMVAKRQFRIGDIVGEHTSFGKLPKDVMATYRGTAFGSDDAGGKLTYTIDFAAKQGHGKIEHLKSPELNVDLAAADIKPDEKHHAVISGSVLYNQAEKGSYSLGIFGGQAQEVAGSAEVKTANGIRHIGLAAKQ
For the molecule B1, in assay [2], the “Fold-Decrease in fH binding” value worked out at 0 fold. In assay [3], the “fold effect on fH binding relative to wildtype fHbp” value is less than 2 fold.

B2: fHbp ID 77 D121A mutant (other)
chain: CSSGGGGVAADIGARLADALTAPLDHKDKSLQSLTLDQSVRKNEKLKLAAQGAEKTYGNGDSLNTGKLKNDKVSRFDFIRQIEVDGQLITLESGEFQIYKQDHSAVVALQIEKINNPDKIASLINQRSFLVSGLGGEHTAFNQLPDGKAEYHGKAFSSDDAGGKLTYTIDFAAKQGHGKIEHLKTPEQNVELAAAELKADEKSHAVILGDTRYGSEEKGTYHLALFGDRAQEIAGSATVKIGEKVHEIGIAGKQ
For the molecule B2, the “Fold-Decrease in fH binding” value in assay [2] was 0 fold. Further, the “fold decrease in fH binding compared with wildtype fHbp ID 77” value in assay [3] is roughly 4 fold.

B3: fHbp ID 77 K119A mutant (other)
chain: B2 chain with K119A, A121D
Turning to B3, in assay [2], the “Fold-Decrease in fH binding” value stood at 0 fold. Further, the “fold increase in fH binding compared to wildtype fHbp ID 77” value in assay [3] was roughly 4 fold.

B4: fHbp ID 77 K113A mutant (other)
chain: B2 chain with K113A, A121D
Regarding B4, the “Fold-Decrease in fH binding” value in assay [2] stood at 0 fold.

B5: fHbp ID 77 R41S mutant (other)
chain: B2 chain with R41S, A121D
notes: also called R41S (ID 77)
As to B5, in assay [2], the “Fold-Decrease in fH binding” value came to 0 fold.

B6: fHbp ID 77 K113A/D121A double mutant (other)
chain: B2 chain with K113A
Consider B6, for which, in assay [3], the “fold decreased binding of fH” value was roughly 10 fold.

B7: fHbp ID 14 (natural variant, variant group 1, modular group I) (other)
chain: CSSGGGGVAADIGAGLADALTAPLDHKDKSLQSLTLDQSVRKNEKLKLAAQGAEKTYGNGDSLNTGKLKNDKVSRFDFIRQIEVDGQLITLESGEFQVYKQSHSALTALQTEQEQDPEHSGKMVAKRRFKIGDIAGEHTSFDKLPKDVMATYRGTAFGSDDAGGKLTYTIDFAAKQGHGKIEHLKSPELNVELATAYIKPDEKHHAVISGSVLYNQDEKGSYSLGIFGGQAQEVAGSAEVETANGIHHIGLAAKQ
notes: Recombinant
For B7, the binding result in assay [3] is reported as “binds”.

B8: fHbp chimera I R41S mutant (other)
chain: CSSGGGGVAADIGAGLADALTAPLDHKDKGLQSLTLDQSVSKNEKLKLAAQGAEKTYGNGDSLNTGKLKNDKVSRFDFIRQIEVDGQLITLESGEFQVYKQSHSALTAFQTEQIQDSEHSGKMVAKRQFRIGDIAGEHTAFNQLPDGKAEYHGKAFSSDDAGGKLTYTIDFAAKQGHGKIEHLKTPEQNVELAAAELKADEKSHAVILGDTRYGSEEKGTYHLALFGDRAQEIAGSATVKIGEKVHEIGIAGKQ
notes: Recombinant; also called R41S mutant of the fHbp chimera I
For B8, the binding result in assay [3] is “no binding”.

B9: fHbp ID 22 A235G mutant (other)
chain: CSSGGGGVAADIGAGLADALTAPLDHKDKSLQSLTLDQSVRKNEKLKLAAQGAEKTYGNGDSLNTGKLKNDKVSRFDFIRQIEVDGQLITLESGEFQIYKQDHSAVVALQIEKINNPDKIDSLINQRSFLVSGLGGEHTAFNQLPSGKAEYHGKAFSSDDPNGRLHYSIDFTKKQGYGRIEHLKTPEQNVELASAELKADEKSHAVILGDTRYGGEEKGTYHLALFGDRAQEIGGSATVKIREKVHEIGIAGKQ
For the molecule B9, in assay [2], the “Fold-Decrease in fH binding” value worked out at 0 fold.

B10: fHbp ID 22 Q38A mutant (other)
chain: B9 chain with Q38A, G234A
As to B10, the “Fold-Decrease in fH binding” value in assay [2] is 0 fold. In addition, in assay [3], the “fold reduction in fH binding vs wildtype fHbp ID 22” value (“fold reduction in fH binding” below) was less than 4 fold.

B11: fHbp ID 22 Q126A mutant (other)
chain: B9 chain with Q126A, G234A
Consider B11, for which the “Fold-Decrease in fH binding” value in assay [2] was 0 fold. In addition, in assay [3], the “fold reduction in fH binding” value is less than 4 fold.

B12: fHbp ID 22 E202A mutant (other)
chain: B9 chain with E201A, G234A
On to B12, for which the “Fold-Decrease in fH binding” value in assay [2] is 0 fold.

B13: fHbp ID 22 R41S mutant (other)
chain: B9 chain with R41S, G234A
notes: also called R41S (ID 22)
In the case of B13, the “Fold-Decrease in fH binding” value in assay [2] came to 0 fold. For the same molecule, in assay [3], the “fold reduction in fH binding” value was less than 4 fold.

B14: fHbp ID 22 D201A mutant (other)
chain: B9 chain with D200A, G234A
notes: also called D201A (ID 22)
Consider B14, for which, in assay [2], the “Fold-Decrease in fH binding” value is 0 fold.

B15: fHbp ID 28, wild-type (strain M1239, variant group 3, modular group II) (other)
chain: CSSGGGGSGGGGVAADIGTGLADALTAPLDHKDKGLKSLTLEDSIPQNGTLTLSAQGAEKTFKAGDKDNSLNTGKLKNDKISRFDFVQKIEVDGQTITLASGEFQIYKQNHSAVVALQIEKINNPDKTDSLINQRSFLVSGLGGEHTAFNQLPGGKAEYHGKAFSSDDPNGRLHYSIDFTKKQGYGRIEHLKTLEQNVELAAAELKADEKSHAVILGDTRYGSEEKGTYHLALFGDRAQEIAGSATVKIGEKVHEIGIAGKQ
notes: Recombinant; also called Pep28; peptide 28
Turning to B15, the binding result in assay [3] is reported as “binds”.

B16: fHbp ID 28 E197A mutant (other)
chain: B15 chain with E204A
For B16, in assay [3], the binding result is “binds”.

B17: fHbp ID 28 E218A mutant (other)
chain: B15 chain with E225A
notes: also called E218A (ID 28)
For B17, the binding result in assay [3] was “binds”.

B18: fHbp ID 28 D201A mutant (other)
chain: B15 chain with D208A
notes: also called D201A (ID 28)
In the case of B18, the binding result in assay [3] was “binds”.

B19: fHbp ID 28 K245A mutant (other)
chain: B15 chain with K252A
Consider B19, for which, in assay [3], the binding result is listed as “binds”.
